Experimental data published in patent US20250011363A1, “OPTIMIZED SHORTENED PEPTIDE THAT BINDS TO ACETYLCHOLINE RECEPTOR, AND USE THEREOF” (SKINMED CO., LTD., priority 2021, published 2025).

molecular target: acetylcholine receptor; experiment: SPR, AchR immobilised on CM5 chip, peptide 10 uM

Binder	Binding affinity (RU)
KKEKKK [6mer-2-788]	30 RU
RHCHRR [6mer-2-785]	31 RU
KPWPKR [6mer-2-782]	18 RU
KTMNRK [6mer-2-781]	28 RU
KAEMRR [6mer-2-794]	19 RU
RCAGRR [6mer-2-790]	23 RU
KNMNRK [6mer-2-791]	27 RU
RIWHKK [6mer-2-787]	19 RU
KNDVRR [6mer-2-777]	31 RU
RFPWRK [6mer-2-776]	12 RU
KITIRK [6mer-2-780]	31 RU
RNAPKK [6mer-2-778]	21 RU
RMEMRK [6mer-2-786]	30 RU
RDTPKK [6mer-2-798]	17 RU
KNENRK [6mer-2-789]	24 RU
RAEDKR [6mer-2-792]	13 RU
RMMARR [6mer-2-796]	32 RU
KMSMKK [6mer-2-775]	26 RU
KAAHRR [6mer-2-779]	13 RU
RTHNKR [6mer-2-795]	16 RU
RHCIKR [6mer-2-797]	19 RU
RMHKKR [6mer-2-793]	29 RU
RDMVRK [6mer-2-783]	32 RU
KAEWRK [6mer-2-784]	26 RU

molecular target: acetylcholine receptor; experiment: SPR, AchR immobilized on CM5 chip, peptide at 10 uM

Binder	Binding affinity (RU)
RKCNAR [6mer-1-810]	12 RU
KRNDGK [6mer-1-820]	12 RU
KKKTIK [6mer-1-843]	28 RU
KRDHAK [6mer-1-837]	19 RU
RRFEKK [6mer-1-808]	24 RU
RRDKNR [6mer-1-807]	13 RU
RRIHKK [6mer-1-829]	25 RU
KRDTMK [6mer-1-805]	24 RU
RKDHMK [6mer-1-812]	26 RU
KKCNAK [6mer-1-814]	15 RU
RKICNK [6mer-1-840]	12 RU
KRHCHK [6mer-1-811]	16 RU
KRNTIR [6mer-1-834]	17 RU
KRNWAK [6mer-1-839]	29 RU
KRHTGK [6mer-1-823]	12 RU
KREPIK [6mer-1-822]	17 RU
KKNPWK [6mer-1-831]	15 RU
KKCAVK [6mer-1-801]	18 RU
KRMHAK [6mer-1-819]	17 RU
RKYWGK [6mer-1-832]	12 RU
RRCMIK [6mer-1-836]	22 RU
RRKKKR [6mer-1-799]	30 RU
KRNTWK [6mer-1-838]	17 RU

Binder	Binding affinity (RU)
KKAHMR [6mer-1-826]	31 RU
KKKSNR [6mer-1-809]	12 RU
RRFEMR [6mer-1-815]	23 RU
RKKKFR [6mer-1-827]	30 RU
RRPNMK [6mer-1-828]	26 RU
RRIMKR [6mer-1-817]	16 RU
KRDPFR [6mer-1-804]	31 RU
RREDFK [6mer-1-813]	15 RU
RKEKWK [6mer-1-825]	30 RU
RKIDFK [6mer-1-816]	14 RU
RKIKAR [6mer-1-818]	14 RU
RKMKHK [6mer-1-803]	31 RU
KKTTMK [6mer-1-830]	33 RU
RRYKNR [6mer-1-833]	19 RU
RREHIR [6mer-1-800]	15 RU
RRFANK [6mer-1-842]	11 RU
RKKTIR [6mer-1-806]	12 RU
KKMNIK [6mer-1-824]	12 RU
KRTADK [6mer-1-835]	26 RU
KKDAPR [6mer-1-841]	30 RU
RKYHGR [6mer-1-802]	32 RU
RRTTNR [6mer-1-821]	22 RU

Continued, values first:

Binding affinity (RU)	Binder
23 RU	KKIDKK [6mer-1-845]
28 RU	KKPMNR [6mer-1-844]
19 RU	RKTMFK [6mer-1-848]
21 RU	KKFNWK [6mer-1-849]
28 RU	RKDAEK [6mer-1-846]
29 RU	RRNPEK [6mer-1-850]
20 RU	KKYNHK [6mer-1-847]
19 RU	KRASVK [6mer-1-852]
30 RU	RRYMEK [6mer-1-851]
